Key:
Assay in all cases: cell-based or functional assay
[1] = target: epidermal growth factor receptor (EGFR) on gastric cancer cell lines NCI-N87, AGS and NUGC3 (UniProt P00533)
[2] = target: T1, epidermal growth factor receptor (EGFR) on gastric cancer cell lines NCI-N87, AGS and NUGC3 (UniProt P00533 25-1210, limits assumed)
[3] = target: T1, epidermal growth factor receptor (EGFR) …; remark: listed apart in the source
[4] = target: T1, epidermal growth factor receptor (EGFR) …; remark: listed apart in the source
[5] = target: T1, epidermal growth factor receptor (EGFR) …; remark: listed apart in the source
[6] = target: T1, epidermal growth factor receptor (EGFR) …; remark: listed apart in the source
[7] = target: T1, epidermal growth factor receptor (EGFR) …; remark: listed apart in the source

Molecule: AREG (amphiregulin) (from UniProt P15514 101-198) (ligand)
- increase of cell invasion (NUGC3, AREG 200 ng/ml) [1]: 1.3 fold
- increase of cell invasion (NUGC3, AREG 500 ng/ml) [1]: 1.5 fold

Molecule: TGF-α (transforming growth factor-α) (from UniProt P01135 40-89) (ligand)
- increase of cell invasion (NUGC3, TGF-α 10 ng/ml) [1]: 1.7 fold
- increase of cell invasion (NUGC3, TGF-α 20 ng/ml) [1]: 1.9 fold
- increase of cell invasion (NUGC3, TGF-α 50 ng/ml) [1]: 1.9 fold
- increase of invasion against control (AGS, TGF-α 10 ng/ml) [1]: 1.8 fold
- increase of invasion against control (AGS, TGF-α 20 ng/ml) [1]: 1.8 fold
- increase of invasion against control (AGS, TGF-α 50 ng/ml) [1]: 1.9 fold

Molecule: HB-EGF (heparin binding-EGF-like growth factor) (from UniProt Q99075 63-148) (ligand)
- increase of cell invasion (NUGC3, HB-EGF 10 ng/ml) [1]: 2.3 fold
- increase of cell invasion (NUGC3, HB-EGF 20 ng/ml) [1]: 3.5 fold
- increase of cell invasion (NUGC3, HB-EGF 50 ng/ml) [1]: 4.8 fold
- increase of invasion against control (AGS, HB-EGF 10 ng/ml) [1]: 4.1 fold
- increase of invasion against control (AGS, HB-EGF 20 ng/ml) [1]: 4.5 fold
- increase of invasion against control (AGS, HB-EGF 50 ng/ml) [1]: 3.9 fold

B1: GC1118 (antibody, human IgG1, kappa, V domains shown)
VH: EVQLVESGGGVVQPGGSLRLSCAASGFTFSDYDMSWIRQAPGKGLEWVSGILGGSERSYYRDSVKGRFTISRDNSRKTLYLQMNSLRAEDTAVYYCARHGSPGYTLYAWDYWGQGTTVTVSS
VL: DIVMTQTPLSLPVTPGEPASISCRSNQDLTHSNGNTYLEWYLQKPGQSPRLLIYKVSNRFSGVPDRFSGSGAGTDFTLRISRVEAEDVGVYYCMQGTHWPWTFGQGTKVDIKR
- invaded cells relative to TGF-α alone, % of OD (NUGC3, TGF-α 50 ng/ml, antibody 1 µg/ml), Average (%) [2]: 32.5%
- invaded cells relative to TGF-α alone, % of OD (NUGC3, TGF-α 50 ng/ml, antibody 1 µg/ml), set 1-1 [2]: 31.5%
- invaded cells relative to TGF-α alone, % of OD (NUGC3, TGF-α 50 ng/ml, antibody 1 µg/ml), set 1-2 [2]: 27.3%
- invaded cells relative to TGF-α alone, % of OD (NUGC3, TGF-α 50 ng/ml, antibody 1 µg/ml), set 2-1 [2]: 31.4%
- invaded cells relative to TGF-α alone, % of OD (NUGC3, TGF-α 50 ng/ml, antibody 1 µg/ml), set 2-2 [2]: 30%
- invaded cells relative to TGF-α alone, % of OD (NUGC3, TGF-α 50 ng/ml, antibody 1 µg/ml), set 3-1 [2]: 36.4%
- invaded cells relative to TGF-α alone, % of OD (NUGC3, TGF-α 50 ng/ml, antibody 1 µg/ml), set 3-2 [2]: 38.3%
- invaded cells relative to HB-EGF alone, % of OD (AGS, HB-EGF 20 ng/ml, antibody 1 µg/ml), Average (%) [3]: 49.6%
- invaded cells relative to HB-EGF alone, % of OD (AGS, HB-EGF 20 ng/ml, antibody 1 µg/ml), set 1-1 [3]: 50.6%
- invaded cells relative to HB-EGF alone, % of OD (AGS, HB-EGF 20 ng/ml, antibody 1 µg/ml), set 1-2 [3]: 56.8%
- invaded cells relative to HB-EGF alone, % of OD (AGS, HB-EGF 20 ng/ml, antibody 1 µg/ml), set 2-1 [3]: 57.7%
- invaded cells relative to HB-EGF alone, % of OD (AGS, HB-EGF 20 ng/ml, antibody 1 µg/ml), set 2-2 [3]: 64.2%
- invaded cells relative to HB-EGF alone, % of OD (AGS, HB-EGF 20 ng/ml, antibody 1 µg/ml), set 3-1 [3]: 33.3%
- invaded cells relative to HB-EGF alone, % of OD (AGS, HB-EGF 20 ng/ml, antibody 1 µg/ml), set 3-2 [3]: 34.9%
- invaded cells relative to TGF-α alone, % of OD (AGS, TGF-α 20 ng/ml, antibody 1 µg/ml), Average (%) [4]: 44.1%
- invaded cells relative to TGF-α alone, % of OD (AGS, TGF-α 20 ng/ml, antibody 1 µg/ml), set 1-1 [4]: 45.1%
- invaded cells relative to TGF-α alone, % of OD (AGS, TGF-α 20 ng/ml, antibody 1 µg/ml), set 1-2 [4]: 41.6%
- invaded cells relative to TGF-α alone, % of OD (AGS, TGF-α 20 ng/ml, antibody 1 µg/ml), set 2-1 [4]: 31.2%
- invaded cells relative to TGF-α alone, % of OD (AGS, TGF-α 20 ng/ml, antibody 1 µg/ml), set 2-2 [4]: 33.8%
- invaded cells relative to TGF-α alone, % of OD (AGS, TGF-α 20 ng/ml, antibody 1 µg/ml), set 3-1 [4]: 57.9%
- invaded cells relative to TGF-α alone, % of OD (AGS, TGF-α 20 ng/ml, antibody 1 µg/ml), set 3-2 [4]: 54.8%
- invaded cells relative to HB-EGF alone, % of OD (NUGC3, HB-EGF 50 ng/ml, antibody 1 µg/ml), Average (%) [5]: 39.2%
- invaded cells relative to HB-EGF alone, % of OD (NUGC3, HB-EGF 50 ng/ml, antibody 1 µg/ml), set 1-1 [5]: 18.8%
- invaded cells relative to HB-EGF alone, % of OD (NUGC3, HB-EGF 50 ng/ml, antibody 1 µg/ml), set 1-2 [5]: 21%
- invaded cells relative to HB-EGF alone, % of OD (NUGC3, HB-EGF 50 ng/ml, antibody 1 µg/ml), set 2-1 [5]: 57.7%
- invaded cells relative to HB-EGF alone, % of OD (NUGC3, HB-EGF 50 ng/ml, antibody 1 µg/ml), set 2-2 [5]: 64.2%
- invaded cells relative to HB-EGF alone, % of OD (NUGC3, HB-EGF 50 ng/ml, antibody 1 µg/ml), set 3-1 [5]: 41.7%
- invaded cells relative to HB-EGF alone, % of OD (NUGC3, HB-EGF 50 ng/ml, antibody 1 µg/ml), set 3-2 [5]: 31.9%
- invaded cells relative to AREG alone, % of OD (AGS, AREG 1,000 ng/ml, antibody 1 µg/ml), Average (%) [6]: 55.4%
- invaded cells relative to AREG alone, % of OD (AGS, AREG 1,000 ng/ml, antibody 1 µg/ml), set 1-1 [6]: 55.3%
- invaded cells relative to AREG alone, % of OD (AGS, AREG 1,000 ng/ml, antibody 1 µg/ml), set 1-2 [6]: 61.3%
- invaded cells relative to AREG alone, % of OD (AGS, AREG 1,000 ng/ml, antibody 1 µg/ml), set 2-1 [6]: 51.8%
- invaded cells relative to AREG alone, % of OD (AGS, AREG 1,000 ng/ml, antibody 1 µg/ml), set 2-2 [6]: 53.1%
- invaded cells relative to AREG alone, % of OD (NUGC3, AREG 500 ng/ml, antibody 1 µg/ml), Average (%) [7]: 54.8%
- invaded cells relative to AREG alone, % of OD (NUGC3, AREG 500 ng/ml, antibody 1 µg/ml), set 1-1 [7]: 40.2%
- invaded cells relative to AREG alone, % of OD (NUGC3, AREG 500 ng/ml, antibody 1 µg/ml), set 1-2 [7]: 50.7%
- invaded cells relative to AREG alone, % of OD (NUGC3, AREG 500 ng/ml, antibody 1 µg/ml), set 2-1 [7]: 59.8%
- invaded cells relative to AREG alone, % of OD (NUGC3, AREG 500 ng/ml, antibody 1 µg/ml), set 2-2 [7]: 59.6%
- invaded cells relative to AREG alone, % of OD (NUGC3, AREG 500 ng/ml, antibody 1 µg/ml), set 3-1 [7]: 62.4%
- invaded cells relative to AREG alone, % of OD (NUGC3, AREG 500 ng/ml, antibody 1 µg/ml), set 3-2 [7]: 56.1%
